In paper PMC3690482 (Molecular and cellular endocrinology, 2013):

Target: MET (mouse (endogenous in NLT), UniProt P16056 25-1379)
Experiment: co-IP

AXL in the MET immunoprecipitate, fold of input lysate: 0.6 fold
B1: AXL (receptor, mouse (endogenous in NLT), UniProt Q00993 19-888, looked up)
chain: AHKDTQTEAGSPFVGNPGNITGARGLTGTLRCELQVQGEPPEVVWLRDGQILELADNTQTQVPLGEDWQDEWKVVSQLRISALQLSDAGEYQCMVHLEGRTFVSQPGFVGLEGLPYFLEEPEDKAVPANTPFNLSCQAQGPPEPVTLLWLQDAVPLAPVTGHSSQHSLQTPGLNKTSSFSCEAHNAKGVTTSRTATITVLPQRPHHLHVVSRQPTELEVAWTPGLSGIYPLTHCNLQAVLSDDGVGIWLGKSDPPEDPLTLQVSVPPHQLRLEKLLPHTPYHIRISCSSSQGPSPWTHWLPVETTEGVPLGPPENVSAMRNGSQVLVRWQEPRVPLQGTLLGYRLAYRGQDTPEVLMDIGLTREVTLELRGDRPVANLTVSVTAYTSAGDGPWSLPVPLEPWRPGQGQPLHHLVSEPPPRAFSWPWWYVLLGALVAAACVLILALFLVHRRKKETRYGEVFEPTVERGELVVRYRVRKSYSRRTTEATLNSLGISEELKEKLRDVMVDRHKVALGKTLGEGEFGAVMEGQLNQDDSILKVAVKTMKIAICTRSELEDFLSEAVCMKEFDHPNVMRLIGVCFQGSDREGFPEPVVILPFMKHGDLHSFLLYSRLGDQPVFLPTQMLVKFMADIASGMEYLSTKRFIHRDLAARNCMLNENMSVCVADFGLSKKIYNGDYYRQGRIAKMPVKWIAIESLADRVYTSKSDVWSFGVTMWEIATRGQTPYPGVENSEIYDYLRQGNRLKQPVDCLDGLYALMSRCWELNPRDRPSFAELREDLENTLKALPPAQEPDEILYVNMDEGGSHLEPRGAAGGADPPTQPDPKDSCSCLTAADVHSAGRYVLCPSTAPGPTLSADRGCPAPPGQEDGA
